Source: a protein production outcome set (Wang et al. 2014)

Test: label from the status in PepcDB records

Row | Sequence | protein production
1 | MNKMIILLVIAIIFLHMCLIWLWYRYTNNPSVVDVGWASGLTLAGLIYLNNQEFSLRSLLLVLALLTWGIRLGGYLWWTRIRLKKIDKRYLALSNDWKLAKPLGFFLNFQLQGVLICLVSIPWYFSSSETQTALNLLDGLALIIFLTALILETVADNQLQDFKKNYPGKVCNQKLWRYCRHPNYFYEWLVWCSFTLFALSAPYGWIAIISPLTLYLIMTKITAPMTEQGSIESRGNLYIEYQKVTPMFFPKWLKNNSTPRK | failed
2 | MNKNLSEKMKIAFDIKLKNFGNKIEFAYPNQTLALSTTSNQCSLKCAHCNGHYLNNMVPIEEYEEKVQSRNITSFLLSGGCSYEGDVPINTHINTIKNLKEQGYRLNAHLGLMDKDSIVELCKYLDIVSFDLVFDDETIREVYKMKKSKEDYIEVYNTIQEHTEVAPHICIGLKGGQIKGEYEIIEYLQKNPPNKLTFIVLIPTKGTEYENVEPPELEGVADILCEARINLPDTEINLGCMRPRGVYRKELDQLSIMCGVNRIVLPSRSAKNKAIEMNMTINECKECCVL | failed
3 | MNKQSAAVLMVMGSALSLQFGAAIGTQLFPLNGPWAVTSLRLFIAGLIMCLVIRPRLRSWTKKQWIAVLLLGLSLGGMNSLFYASIELIPLGTAVTIEFLGPLIFSAVLARTLKNGLCVALAFLGMALLGIDSLSGETLDPLGVIFAAVAGIFWVCYILASKKIGQLIPGTSGLAVALIIGAVAVFPLGATHMGPIFQTPTLLILALGTALLGSLIPYSLELSALRRLPAPIFSILLSLEPAFAAAVGWILLDQTPTALKWAAIILVIAASIGVTWEPKKMLVDAPLHSKCNAKRRVHTPS | failed
4 | MNKRNTQQRRHSIISILNEQGEVSVDELSLRFETSEVTIRKDLAELEKTGLLLRRYGGAVAIPDEVTQQFSAKIAPNKLSIAKAAAQLIKDHNRIIIDSGTTTSGLIAELNQKRGLVVMTNALHLANAIHELENEPTLLMTGGTWDPHSESFQGQVAEQVLRSYNFDQLFIGADGIDLARGTTTFNELTGLSKVMAEVSREVIVMVDSDKIGKRIPNLELPWSKISVLVTDARIEESALKQITEQGVKVILAPYSP | failed
5 | MNKRVQAFLAKMQEKELDGIIINNLKNVYYLTGFWGSNGTVFISRDRQVLVTDSRYIIAAKQETSGFEIVADRDELAVIAGIVKDMGLTRIGFEDEISVSYYHRMQAAFAGLNLLPQTQFVEGLRMIK | failed
6 | MNKTELIKNVAQNAEISQKEATVVVQTVVESITNTLAAGEKVQLIGFGTFEVRERAARTGRNPQTGEEMQIAASKVPAFKAGKELKEAVK | not failed
7 | MNKWAILSLACVPYALLTIVNEDTLEIGGSANIFWKIGLFAPLIGVLFSAGASKTYQRVMLALFNLSYYFVLYIYMIYTF | failed
8 | MNLAQSNREIVELLVPIIVGYMSLFISSIFVYRIGKIILRRDSISLISAIIFLLNPSTIFCLLYSPKNYGFASVGYYFVPLLYLMSYYYYLKKDWKKFTAFTVALTLTSPLSYLIAITFIVYLLIRNRIDEKSLSWSLLRENKISLVLILVSLIIGVLVIPQTLQHFSSLLIASIYPQYTSLNYIYDNVYFKLTYWFILFGVFSFLPIFSPLELIPALPYLLVGLFSSYIPYYSYGYYPYYFLALPMLIMGFIRTINLIKDDKRTMLISYVFIFLFNVALLYVILE | failed
9 | MNLASQSGEAGAGQLLFANFNQDNTEVKGASRAAGLGRRAVVWSLAVGSKSGYKFFSLSSVDKLEQIYECTDTEDVCIVERLFSSSLVAIVSLKAPRKLKVCHFKKGTEICNYSYSNTILAVKLNRQRLIVCLEESLYIHNIRDMKVLHTIRETPPNPAGLCALSINNDNCYLAYPGSATIGEVQVFDTINLRAANMIPAHDSPLAALAFDASGTKLATASEKGTVIRVFSIPEGQKLFEFRRGVKRCVSICSLAFSMDGMFLSASSNTETVHIFKLETVKEKPPEEPTTWTGYFGKVLMASTSYLPSQVTEMFNQGRAFATVRLPFCGHKNICSLATIQKIPRLLVGAADGYLYMYNLDPQEGGECALMKQHRLDGSLETTNEILDSASHDCPLVTQTYGAAAGKGTYVPSSPTRLAYTDDLGAVGGACLEDEASALRLDEDSEHPPMILRTD | failed
10 | MNLDTPLADGLERAKRFEQGLQQVVLGQERPIRLLTLAVFARGHALLEGGVGVGKTTLLRAVARGIGGDYERIEGTIDLMPNDLVYYTYLDEQGRPGVAPGPLLKHGEQLSIFFFNEINRARPQVHSLLLRVMAERSVSAFNREYRFPYLQVFADRNRVEKEETFELPAAARDRFMLEIAIEPPADPAHIDQILFDPRFYDPDRLVASAPADTLSFRELNGIAEALQGGIHVSARLRSYVQDLWRATRRPEDFGIALHEADSGDMIEAGSSPRGMSYLVRLARVQAWLSGRDRVEPEDVQYVFAPAVGHRIFLKPVYEYRRAELIPELVGKLIRRIAAPLEHHHHHH | failed
11 | MNLLPGFAYIEMESISNLTPLVMKTLAGFIAGIPKAELHLHIEGTLEPEMMLALGERNGVPLPYPDADAAKSAYHFSDLQSFLDIYYRATAVLVTEQDFYDLTIAYLQKAVSRKVCHAEIFFDPQSHIARGVPFETVVGGIGQALSDANGGLGISTKLIMCILRHLSEEDGNAVLEQAVRWKRWISGIGLDSSEKGNPPGKFRELFAKARHYGFFTVAHAGEEGNASSISEALDALHVIRIDHGVHCMEDPVLVERLRLDRIPLTICPLSNVRLNVFGSMREHNLKTMLDAGLCVTINSDDPAYFGGYVNENYLAAAEALNLDRNDIIRLARNSFEASVLSNVQKKLYLQKLDHYVDSFIQ | failed
12 | MNLPFAPQSFAALLVMVMTLAHGSVSAQESFRVELGRDGETLGDMRPVFLKFESRPLPAISPLEVARRYQKLFESSDEPEVRIDALNRLNNIRNRSGEDVGFSEEREAAIYEEVLESYESILAKGSFSGRLDELLYQMAKAHALTGQPEQSIARLKQLVGLYPNSELVPEARFRIAEAAFSAGRYAEAEAGYRQLLEHDSHQELAAKARYMLGWSQFKQGNPAWARASASFTAVLDQQLPDHSALANPPAHSMDMLEDTFRVLALMASRQSDARTLADWLDGRESSAWQHLLYDRLADLHAVERRYERAVLVNNAFVSEFPGHTASPDFLAQSVSYWQLAGNTSKALAARDDYIQRLGAEARFQTMTPEQKGLWAQYSRFLADHYYATGTDLSSRNQTAAASEAWAKAAHYYERLAPRSEQAGELLHLAGDARLLAGDRTEAVRNFRAAAYDHRHGDSRDSAWAAIRIVREDLELASGENRTATLLVLSNEEQRYAEAFGPDQRLSGLRADLANRWYDLGEFERALHYASSTLTWERAGVTERYAAWLVTARIRQKNNEFGLAERAWRQALPLADEASQDAESQRRSLLEQLASAIYQQGEKAARAGDATLAVAHFQRVEGVMPGSEIAIKARYDAANTLLRASDWLAAINELQRFRIDYPSHELTPETSEKLVLAYQESGQGLKAAEELLNRSETLADPWPTRLRAAAIFHAEGDSASRNQLYKNWLAVAPTPDSADEHVQHQTMRQRLIESGDSVIAVREQLLARERASQWHSDGTLKWAADAALFFGAQTAERFAGIALVHPLEQALARKQAAMQQAQEYLQEAESFAGDGVRSEVLYRRAELYRTLASDLMSSEVPAELNEMEAMQYQMLLEEEAFPLEEEAMALHARNHERIPTEGFDEWIQRSLEALATMHPGRYDRQLRWMSWTTDTNQGGS | failed
13 | MNLPHLMSLASHLASHGFFCLRFTCKGLNIVHRIKAYKSVLNYLKTSGEYKLAGVFLGGRSMGSRAAASVMCHIEPDDGDDFVRGLICISYPLHHPKQQHKLRDEDLFRLKEPVLFVSGSADEMCEKNLLEKVAQKMQAPHKIHWIEKANHSMAVKGRSTNDVFKEINTQILFWIQEITEMDKKCH | failed
14 | MNLTRLREKILNKSHSAMLIFSDINISYLSTFTGHAATILLTSKGNYLLTDYRYFEQAKTQASHFNVICRDRANQSLASLIEDLLFQDDCQSLSFESEHISVMQWQQIHQQISQLTKLSQIEAVSGAVEALRFIKSTSEISSIEQAAKIADTALAAMLNSVKAGVTERELAIELDYQMAKLGSEEVSFATILLFGERSALPHGIPSDKQLKLGDIILIDFGAVVNGYRSDMTRTFVFGQASAEQKHIYQLVQSAQQAAIDAVYEGVLGSHLYQQSANILLNSEYKKYAGEGLGHGVGLVLHEQPFIGPDCHTTIEKGCVITIEPGIYIPGWGGIRIEDDVVLTDEGLKILTKSPKGLIEL | failed
